The target in assay [1] is human FcγRIIIA (CD16A), variant at 158 not stated (human) (UniProt P08637). The assay is described as follows: cell-based or functional assay. More on the design: unit not given beside the values.
The target of assay [2] is mouse FcγRIV (mouse). The assay is described as follows: ELISA, recombinant mouse FcγRIV coated on the plate. A general note: An ELISA detects its analyte on a solid surface through an enzyme-linked reagent.
For assay [3], the target named is mouse FcγRIIb (mouse) (UniProt P08101). As to the kind of experiment: ELISA, recombinant mouse FcγRIIb coated on the plate.
Assay [4] addresses human FcγRIIIa 158F variant (human) (UniProt P08637). The assay is described as follows: flow cytometry titration on CHO cells expressing human FcγRIIIa-158F.
Assay [5] addresses human FcγRIIIa (158V variant) (human) (UniProt P08637). The assay is described as follows: flow cytometry titration on CHO cells expressing human FcγRIIIa-158V. On the technique in general: A flow cytometer gives signals particle by particle.
Assay [6] has as its target human FcγRIIb (human) (UniProt P31994). As to the kind of experiment: flow cytometry on CHO cells expressing human FcγRIIb; antibody as dimeric complex with PE-conjugated Fab'2 anti-human Fab'2.

Results on 4 substances are retold here after patent WO2015070078A1.

Consider “ESKM having 100% reduced fucose content relative to ESK1 wildtype IgG1 (GlymaxX technology, CHO cells) (antibody)”, for which, in assay [1], the EC50 of reverse signaling through FcγRIIIA (CD16A): NFAT-luciferase reporter in Jurkat cells with RMF-pulsed T2 cells came out at 0.17.

Consider ESK1 (antibody), for which the EC50 of reverse signaling through FcγRIIIA (CD16A): NFAT-luciferase reporter in Jurkat cells with RMF-pulsed T2 cells in assay [1] worked out at 0.88.

“ESKM (produced in MAGE 1.5 CHO cells, no detectable fucose or galactose) (antibody)”: the higher affinity (against ESK1) in assay [2] is 51%. In assay [3], the affinity as a fraction of that of ESK1 turned out to be 0.5 fold. Further, in assay [4], the fold higher affinity (against normally glycosylated ESK1) is 3.5 fold. In assay [5], this substance returned a higher affinity (against normally glycosylated ESK1) of 80%. In assay [6], this substance yielded a reduced affinity (against normally glycosylated ESK1) of 50%.

“ESK1 containing D265A/P329A mutations in the Fc domain (antibody)” gave an EC50 of reverse signaling through FcγRIIIA (CD16A): NFAT-luciferase reporter in Jurkat cells with RMF-pulsed T2 cells in assay [1] above 10000.
